Data from the Human Domainome abundance scans (Beltran et al. 2025).
± gives the uncertainty stated by the source.

B1: POU domain, class 3, transcription factor 2, residues 356 to 411; numbered along this chain, P20265 (parent)
chain: KKRTSIEVSVKGALESHFLKCPKPSAQEITSLADSLQLEKEVVRVWFCNRRQKEKR

Variants of: B1
Test: abundance fitness (aPCA) (normalised: wild type 0, dead -1); higher = more abundant; growth selection in yeast, the domain comes from the species named
Details: Homo sapiens

Variant	abundance fitness
E15R	-1.02 ± 0.14
K2Q	-0.068 ± 0.17
K11H	0.031 ± 0.12
F18C	-0.914 ± 0.21
L36T	-0.7 ± 0.11
V45N	-0.006 ± 0.11
V43N	-0.889 ± 0.34
E41N	-0.069 ± 0.18
I29V	-0.158 ± 0.11
A33M	-0.759 ± 0.26
K1L	-0.498 ± 0.46
R50F	-1.05 ± 0.31
T30N	0.212 ± 0.13
R3G	0.092 ± 0.08
G12M	0.068 ± 0.14
A13T	-0.064 ± 0.12
V8M	0.046 ± 0.11
V42A	-0.089 ± 0.083
S25L	-0.423 ± 0.093
P24A	-0.789 ± 0.16
P24C	-0.731 ± 0.19
V45K	-0.057 ± 0.1
I6H	-0.247 ± 0.17
A33G	-0.806 ± 0.12

Variant	abundance fitness
S16K	0.12 ± 0.13
L36Q	-1.25 ± 0.27
H17N	-0.229 ± 0.35
V43M	-0.944 ± 0.16
K1A	-0.237 ± 0.21
C48W	-0.007 ± 0.1
K23M	-0.077 ± 0.11
Q52K	-0.001 ± 0.14
R3M	0.031 ± 0.11
E39P	-0.244 ± 0.13
K11E	0.038 ± 0.11
F47A	-0.92 ± 0.15
Q52N	-0.007 ± 0.1
H17W	-0.02 ± 0.098
A13P	-0.442 ± 0.19
R50G	-0.735 ± 0.086
K40A	-0.017 ± 0.097
I6L	0.045 ± 0.089
S9Y	-0.267 ± 0.19
K20P	-1.03 ± 0.16
E39W	-0.943 ± 0.17
E28D	-0.281 ± 0.21
I6F	-0.438 ± 0.17
R3P	-0.134 ± 0.15

Variant	abundance fitness
E39R	-0.404 ± 0.083
A33V	-0.71 ± 0.13
L32W	-0.915 ± 0.15
S5D	-0.174 ± 0.15
P24Q	-0.86 ± 0.37
Q37K	-0.064 ± 0.1
S16A	0.097 ± 0.11
R44S	-0.09 ± 0.07
K55T	-0.029 ± 0.13
K55Y	-0.019 ± 0.14
D34L	0.098 ± 0.077
K40W	-0.178 ± 0.1
R3T	-0.009 ± 0.11
V45M	-0.101 ± 0.18
L36E	-0.892 ± 0.12
E54M	-0.407 ± 0.18
S35V	-0.119 ± 0.11
C21N	-0.168 ± 0.16
Q52E	0.222 ± 0.15
S5C	0.033 ± 0.096
A13M	0.024 ± 0.14
N49D	0.221 ± 0.2
L38G	-0.871 ± 0.076
R44Y	-0.416 ± 0.12

Variant	abundance fitness
E15C	-0.612 ± 0.18
I29S	-0.884 ± 0.11
K20E	-0.445 ± 0.12
Q27G	-0.131 ± 0.061
K11I	0.074 ± 0.13
V8C	-0.327 ± 0.14
Q27R	-0.007 ± 0.068
R50S	-0.659 ± 0.12
Q27P	-0.21 ± 0.16
K40P	-0.027 ± 0.12
C21P	-1.14 ± 0.33
A26E	-0.064 ± 0.093
A33P	-0.794 ± 0.19
K1I	-0.397 ± 0.22
F18I	-1.1 ± 0.33
V42P	-0.869 ± 0.23
P24T	-0.986 ± 0.31
F18S	-0.824 ± 0.12
H17Y	0.156 ± 0.083
E54G	-0.454 ± 0.094
R44V	-0.38 ± 0.076
V45P	-0.784 ± 0.13
K20A	-0.319 ± 0.11
R44G	-0.188 ± 0.1

Variant	abundance fitness
A33E	-0.55 ± 0.26
F18R	-0.872 ± 0.1
P22Q	0.137 ± 0.13
P22W	-0.699 ± 0.13
V43L	-0.361 ± 0.068
K23F	-0.163 ± 0.12
E41S	-0.256 ± 0.086
P22N	-0.337 ± 0.15
W46M	-0.922 ± 0.14
V10Q	-0.13 ± 0.17
E7I	-0.116 ± 0.081
A26R	-0.13 ± 0.076
R56D	0.12 ± 0.18
E54I	-0.665 ± 0.15
A33C	-0.428 ± 0.099
L19K	-0.162 ± 0.14
K53Y	-0.545 ± 0.29
L14N	-0.632 ± 0.23
Q37W	-0.394 ± 0.12
L19F	-0.474 ± 0.13
S25R	-0.47 ± 0.1
C21I	-0.484 ± 0.17
P22S	-0.253 ± 0.1
K55N	-0.046 ± 0.15

Variant	abundance fitness
K23V	-0.045 ± 0.092
P22V	-0.713 ± 0.082
R50M	-0.545 ± 0.16
F18N	-0.856 ± 0.36
K23R	-0.041 ± 0.078
I29Q	-0.782 ± 0.19
E39L	-0.847 ± 0.11
R51C	-0.442 ± 0.22
S25H	-0.467 ± 0.17
K2W	-0.246 ± 0.13
C48I	-0.004 ± 0.18
L14R	-0.855 ± 0.092
E39I	-0.982 ± 0.37
R44D	0.008 ± 0.11
K40E	0.096 ± 0.12
R56I	-0.508 ± 0.48
K20W	-0.605 ± 0.12
A33W	-0.735 ± 0.17
F47I	-0.751 ± 0.21
C21W	-0.437 ± 0.11
L38W	-0.804 ± 0.1
L36D	-0.842 ± 0.16
T30V	-0.016 ± 0.079
L38Y	-0.827 ± 0.17

Variant	abundance fitness
S16I	-0.368 ± 0.18
N49M	-0.197 ± 0.1
S9V	-0.123 ± 0.083
I29M	-0.093 ± 0.14
C21Q	-0.01 ± 0.15
N49F	-0.515 ± 0.15
A33F	-0.599 ± 0.12
F18V	-1.03 ± 0.12
W46T	-0.958 ± 0.17
N49I	-0.249 ± 0.17
K11R	-0.126 ± 0.082
T4L	-0.199 ± 0.085
L32R	-0.911 ± 0.11
V10L	-0.134 ± 0.091
D34P	-0.719 ± 0.1
N49V	-0.103 ± 0.12
Q37N	-0.077 ± 0.18
E41A	-0.238 ± 0.12
K11G	-0.134 ± 0.091
W46G	-0.92 ± 0.1
E39H	0.036 ± 0.12
N49S	-0.137 ± 0.072
A13Y	-0.142 ± 0.12
